Biological target: T1, human recombinant biotinylated FcRn (Immunitrack) (human, UniProt P55899 24-297, biotinylated (site not told))
T1 construct: Immobilised on a ProteOn NLC chip for SPR at pH 6.0; also called human FcRn; hFcRn
Assay: SPR, human FcRn immobilised, IL-12Fc variants in solution, pH 6.0
Protocol: SPR was performed using the ProteOn XPR36 System (Bio-Rad Laboratories, Inc.), coating human recombinant biotinylated FcRn (Immunitrack) on a ProteOn NLC sensor chip to approximately 80 response units (RU). […] The dissociation time was 600 s. Analysis was performed using the ProteOn Manager software (Bio-Rad Laboratories, Inc.) using data normalization to the injection time, interspot background removal and build-in artefact removal function. Kd were calculated using the equilibrium analysis model.

T1 sequence (P55899 24-297): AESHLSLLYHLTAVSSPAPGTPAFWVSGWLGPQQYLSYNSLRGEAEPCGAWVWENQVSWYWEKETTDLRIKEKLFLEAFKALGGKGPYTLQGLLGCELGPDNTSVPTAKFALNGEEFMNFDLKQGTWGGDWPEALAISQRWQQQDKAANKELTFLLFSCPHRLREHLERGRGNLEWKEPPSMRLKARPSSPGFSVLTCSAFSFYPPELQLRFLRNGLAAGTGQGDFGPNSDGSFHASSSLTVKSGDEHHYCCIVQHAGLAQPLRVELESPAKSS

B1: human IL-12Fc NHQ (Fc fusion)
chain: IWELKKDVYVVELDWYPDAPGEMVVLTCDTPEEDGITWTLDQSSEVLGSGKTLTIQVKEFGDAGQYTCHKGGEVLSHSLLLLHKKEDGIWSTDILKDQKEPKNKTFLRCEAKNYSGRFTCWWLTTISTDLTFSVKSSRGSSDPQGVTCGAATLSAERVRGDNKEYEYSVECQEDSACPAAEESLPIEVMVDAVHKLKYENYTSSFFIRDIIKPDPPKNLQLKPLKNSRQVEVSWEYPDTWSTPHSYFSLTFCVQVQGKSKREKKDRVFTDKTSATVICRKNASISVRAQDRYYSSSWSEWASVPCSRNLPVATPDPGMFPCLHHSQNLLRAVSNMLQKARQTLEFYPCTSEEIDHEDITKDKTSTVEACLPLELTKNESCLNSRETSFITNGSCLASRKTSFMMALCLSSIYEDLKMYQVEFKTMNAKLLMDPKRQIFLDQNMLAVIDELMQALNFNSETVPQKSSLEEPDFYKTKIKLCILLHAFRIRAVTIDRVMSYLNASKVDKRVESKYGPPCPPCPAPEFLGGPSVFLFPPKPKDTLMNSRTPEVTCVVVDVSQEDPEVQFNWYVDGVEVHNAKTKPREEQFNSTYRVVSVLTVLHQDWLNGKEYKCKVSNKGLPSSIEKTISKAKGQPREPQVYTLPPSPEEMTKNQVSLTCLVKGFYPSDIAVEWESNGQPENNYKTTPPVLDSDGSFFLYSRLTVDKSRWQEGNVFSCSVMHEALHNQYTQKSLSLSLGK
notes: mature; As m1 with I253N and H435Q (EU) in the Fc; also called NHQ variant; not shown: Gly-Ser-linker between p40 and p35
fold reduction of affinity against IL-12Fc WT: ~8 fold

Reference: patent US20220195051A1 (UNIVERSIT T Z RICH, published 2022)
